# In publication PMC5299495, “Co‐immobilized Phosphorylated Cofactors and Enzymes as Self‐Sufficient Heterogeneous Biocatalysts for Chemical Processes” (Angewandte Chemie (International Ed. in English), 2016):
# B1: Cb‐FDH ([Candida] boidinii) (protein)
# chain: MKIVLVLYDAGKHAADEEKLYGCTENKLGIANWLKDQGHELITTSDKEGETSELDKHIPDADIIITTPFHPAYITKERLDKAKNLKLVVVAGVGSDHIDLDYINQTGKKISVLEVTGSNVVSVAEHVVMTMLVLVRNFVPAHEQIINHDWEVAAIAKDAYDIEGKTIATIGAGRIGYRVLERLLPFNPKELLYYDYQALPKEAEEKVGARRVENIEELVAQADIVTVNAPLHAGTKGLINKELLSKFKKGAWLVNTARGAICVAEDVAAALESGQLRGYGGDVWFPQPAPKDHPWRDMRNKYGAGNAMTPHYSGTTLDAQTRYAEGTKNILESFFTGKFDYRPQDIILLNGEYVTKAYGKHDKK
# notes: free soluble enzyme
# Substrate: NC(=O)c1ccc[n+]([C@@H]2O[C@H](COP(=O)(O)OP(=O)(O)OC[C@H]3O[C@@H](n4cnc5c(N)ncnc54)[C@H](O)[C@@H]3O)[C@@H](O)[C@H]2O)c1
# Test: steady-state kinetics, soluble enzyme and soluble NAD+
# Format: biochemical, [Candida] boidinii
# Conditions: free enzyme; co-substrate formate
protein,measurement,value
B1,Km,85 ± 0.9 µM
